# Test results from article PMC2813275.
# Molecular target: GST-Nup153 (human wt Nup153) (human)
# Assay: co-IP; competition: 200 ng P-rC with 200 ng GST-Nup153 and different concentrations of importin β together, 2 h at 37°C in transport buffer; anti-capsid beads; mAb414 blot
substance,measurement,value
importin β (karyopherin) (from UniProt Q14974 1-876) (natural protein),molar excess of importin β that prevented Nup153 binding to P-rC,> 150 fold
